According to patent publication US20150203577A1 (Chugai, published 2015):
Changes are numbered by the printed parent chain.

T1: mouse FcγRIII (mouse, UniProt P08508 31-215)
T1 construct: also called mFcγRIII; mFcgRIII
T1 chain: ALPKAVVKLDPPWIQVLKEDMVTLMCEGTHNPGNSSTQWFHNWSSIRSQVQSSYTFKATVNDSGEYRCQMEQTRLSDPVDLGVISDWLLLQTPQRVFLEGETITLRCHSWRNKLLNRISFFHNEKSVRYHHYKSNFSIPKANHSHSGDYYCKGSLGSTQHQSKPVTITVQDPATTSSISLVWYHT

T2: mouse FcγRII (mouse, UniProt P08101 30-210)
T2 construct: also called mFcγRII; mFcgRII
T2 sequence: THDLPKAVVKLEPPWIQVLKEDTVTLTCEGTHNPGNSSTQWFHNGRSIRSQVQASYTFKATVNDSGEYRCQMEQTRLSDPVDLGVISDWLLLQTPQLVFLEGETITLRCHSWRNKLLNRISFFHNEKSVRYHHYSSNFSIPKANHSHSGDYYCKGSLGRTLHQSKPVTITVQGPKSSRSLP

T3: mouse FcγRIII (mouse, UniProt P08508 31-215)
T3 construct: Extracellular domain with C-terminal His tag; also called mFcγRIII; mFcgRIII
T3 chain: T1 chain

T4: mouse FcγRII (mouse, UniProt P08101 30-210)
T4 construct: Extracellular domain with C-terminal His tag; also called mFcγRII; mFcgRII
T4 sequence: T2 sequence

B1: H237-MB618/MRAL-k0 (antibody, mouse IgG1)
heavy: QVQLQESGPGLVKPSETLSLTCAVSGHSISHDHAWSWVRQPPGEGLEWIGFISYSGITNYNPSLQGRVTISRDNSKNTLYLQMNSLRAEDTAVYYCARSLARTTAMDYWGEGTLVTVSSAKTTPPSVYPLAPGSAAQTNSMVTLGCLVKGYFPEPVTVTWNSGSLSSGVHTFPAVLQSDLYTLSSSVTVPSSTWPSETVTCNVAHPASSTKVDKKIVPRDCGCKPCICTVPEEDDVFIFPPKPKDVLTITLTPKVTCVVVDISKDDPEVQFSWFVDDVEVHTAQTQPREEQFNSTFRSVSELPIMHQDWLNGKEFKCRVNSAAFPAPIEKTISKTKGRPKAPQVYTIPPPKEQMAKDKVSLTCMITDFFPEDITVEWQWNGQPAENYKNTQPIMDTDGSYFVYSKLNVQKSNWEAGNTFTCSVLHEGLHNHHTEKSLSHSPGK
light: not shown
notes: mouse IgG1 CH variant; copies: 2 + 2
B2: H237-MB638/MRAL-k0 (antibody, mouse IgG1, kappa)
heavy: B1 heavy with T229I, V230P, P231A, E233V, D234E, D235N
light: not shown
notes: as for B1
B3: H237-MB617/MRAL-k0 (antibody, mouse IgG1, kappa)
heavy: B1 heavy with D234S, F237D
light: not shown
notes: as for B1
B4: H237-MB607/MRAL-k0 (antibody, mouse IgG1, kappa)
heavy: B1 heavy with D234E, D235E
light: not shown
notes: as for B1
B5: H237-MB641/MRAL-k0 (antibody, mouse IgG1, kappa)
heavy: B1 heavy with T229E, V230A, P231Y, E233V, D234E, D235Y
light: not shown
notes: as for B1
B6: H237-MB643/MRAL-k0 (antibody, mouse IgG1, kappa)
heavy: B1 heavy with T229E, V230N, P231Y, E233V, D234E, D235Y
light: not shown
notes: as for B1
B7: H237-MB624/MRAL-k0 (antibody, mouse IgG1, kappa)
heavy: B1 heavy with T229E, V230D, P231Y, E233V, D234E, D235L
light: not shown
notes: as for B1
B8: H237-MB611/MRAL-k0 (antibody, mouse IgG1, kappa)
heavy: B1 heavy with D235E
light: not shown
notes: as for B1
B9: H237-MB626/MRAL-k0 (antibody, mouse IgG1, kappa)
heavy: B1 heavy with T229E, V230T, P231Y, E233V, D234E, D235L
light: not shown
notes: as for B1
B10: H237-MB637/MRAL-k0 (antibody, mouse IgG1, kappa)
heavy: B1 heavy with T229E, V230P, P231A, E233V, D234E, D235N
light: not shown
notes: as for B1
B11: H237-MB633/MRAL-k0 (antibody, mouse IgG1, kappa)
heavy: B1 heavy with T229E, V230D, P231Y, E233V, D234E, D235N
light: not shown
notes: as for B1
B12: MB857 (antibody, mouse IgG1, kappa)
heavy: B1 heavy with T229E, V230P, P231N, E233V, D234E, D235L, N320D, A322D, A323G, E329Y
light: not shown
notes: CH name; VH H237 + CH, L chain MRAL-k0; copies: 2 + 2
B13: MB861 (antibody, mouse IgG1, kappa)
heavy: B1 heavy with T229E, V230P, P231N, E233V, D234E, D235L, K264D, N320D, A322D, A323G
light: not shown
notes: as for B12
B14: MB864 (antibody, mouse IgG1, kappa)
heavy: B1 heavy with T229E, V230P, P231N, E233V, D234E, D235L, K264D, A322D, A323G, K330R
light: not shown
notes: as for B12
B15: MB865 (antibody, mouse IgG1, kappa)
heavy: B1 heavy with T229E, V230P, P231N, E233V, D234E, D235L, K264D, Q291L, A322D, A323G
light: not shown
notes: as for B12
B16: MB858 (antibody, mouse IgG1, kappa)
heavy: B1 heavy with T229E, V230P, P231N, E233V, D234E, D235L, N320D, A322D, A323G, K330R
light: not shown
notes: as for B12
B17: MB859 (antibody, mouse IgG1, kappa)
heavy: B1 heavy with T229E, V230P, P231N, E233V, D234E, D235L, A322D, A323G, P327Y, K330R
light: not shown
notes: as for B12
B18: MB862 (antibody, mouse IgG1, kappa)
heavy: B1 heavy with T229E, V230P, P231N, E233V, D234E, D235L, K264D, A322D, A323G, P327Y
light: not shown
notes: as for B12
B19: MB863 (antibody, mouse IgG1, kappa)
heavy: B1 heavy with T229E, V230P, P231N, E233V, D234E, D235L, K264D, A322D, A323G, E329Y
light: not shown
notes: as for B12
B20: MB860 (antibody, mouse IgG1, kappa)
heavy: B1 heavy with T229E, V230P, P231N, E233V, D234E, D235L, A322D, A323G, E329Y, K330R
light: not shown
notes: as for B12

Target: T1, mouse FcγRIII
Assay: SPR (Biacore), antibody captured on Protein L, mFcγR as analyte
Description: (§1) Each altered antibody was analyzed for its interaction with each Fcγ receptor prepared above using Biacore T100 (GE Healthcare Japan Corp.), Biacore T200 (GE Healthcare Japan Corp.), Biacore A100, or Biacore 4000. The running buffer used was HBS-EP+ (GE Healthcare Japan Corp.). The assay temperature was set to 25° C. The sensor chips used were chips prepared by immobilizing Protein L (ACTIGEN or BioVision) onto Series S Sensor Chip CM5 (GE Healthcare Japan Corp.) or Series S Sensor Chip CM4 (GE Healthcare Japan Corp.) by the amine coupling method.
(§2) In order to calculate the KD value of each altered antibody for FcγR, kinetic analysis was conducted according to the following method: first, the antibody of interest was captured onto any of these chips and allowed to interact with mFcγR diluted with a running buffer. For the obtained sensorgram, the assay results were globally fit into the 1:1 Langmuir binding model using Biacore Evaluation Software to calculate an association rate constant ka (L/mol/s) and a dissociation rate constant kd (1/s). From these values, the dissociation constant KD (mol/L) was calculated.

Binder	Kd [nM]	relative mFcγRIII-binding activity (mIgG1 = 1) [fold]
B1	2730	0.13
B2	3380	0.1
B3	2100	0.15
B4	1770	0.18
B5	2100	0.15
B6	2000	0.16
B7	2870	0.11
B8	3420	0.09
B9	2370	0.14
B10	1890	0.17
B11	1640	0.2

The binders below were run against T2, mouse FcγRII in the same assay as above.
Description: as §1, §2

Binder	Kd [nM]	relative mFcγRII-binding activity (mIgG1 = 1) [fold]
B1	156	1.63
B2	280	0.83
B3	255	0.84
B4	67.9	3.14
B5	143	1.62
B6	126	1.83
B7	263	0.88
B8	192	1.11
B9	261	0.89
B10	80.7	2.87
B11	75.8	3.05

Target: T3, mouse FcγRIII
Assay: SPR (Biacore T200); KD of H237-MB630/MRAL-k0 / KD of variant

Binder	Relative mFcγRIII-binding activity (MB630 = 1) [fold]
B12	4.92
B13	13.2
B14	19.9
B15	18.3
B16	6.92
B17	3.9
B18	10.8
B19	12.7
B20	4.07

The binders below were run against T4, mouse FcγRII in the same assay as above.

Binder	Relative mFcγRII-binding activity (MB630 = 1) [fold]
B12	4.21
B13	7.25
B14	10.4
B15	7.91
B16	5.86
B17	3.22
B18	6.41
B19	7.68
B20	3.74

Target: T3, mouse FcγRIII
Assay: SPR (Biacore T200); KD of H237-mIgG1/MRAL-k0 / KD of variant

Binder	relative mFcγRIII-binding activity (mIgG1 = 1) [fold]
B12	0.9
B13	2.41
B14	3.63
B15	3.34
B16	1.27
B17	0.71
B18	1.98
B19	2.33
B20	0.75

These binders were tested against T4, mouse FcγRII in the same assay as above.

Binder	relative mFcγRII-binding activity (mIgG1 = 1) [fold]
B12	44.6
B13	76.8
B14	110
B15	83.8
B16	62
B17	34.2
B18	67.9
B19	81.3
B20	39.6
